Laboratory results taken from patent publication US6384189.

Target: recombinant small latent TGF-β
Assay: cell-based or functional assay

Fold Activation of Latent TGF-β over Baseline (soft agar NRK colony formation) (fold over baseline) | Substance
2.5 | RFK (SEQ ID NO:18) (peptide)
2 | TSP stripped of TGF-β activity (sTSP) (from UniProt P07996 19-1170)
